The text below walks through data of paper PMC11200239.

One may read the stoichiometry N as the number of molecules, sites or subunits per partner or assembly.

The target in this experiment is MerA variant G415I (P. aeruginosa) (UniProt P00392). The experiment can be described thus: SEC-MALS. A general note: SEC sorts molecules by how far they enter the pores of the column.

On to “MerA variant G415I (from UniProt P00392 96-561) (enzyme)”, for which the stoichiometry N came to 2.
